Experiment [1] has as its target MBP-RtcR (wild-type, full-length RtcR N-terminally tagged with maltose binding protein) (Escherichia coli) (UniProt P38035). The experiment is described as follows: MST; RED-NHS-labelled MBP-RtcRWT or RtcR_(ΔCARF) (diluted to 50 nM, mixed with an equal volume) against a serial dilution of RtcA or RtcB; 24°C; modified PBS (250 mM NaCl) with 0.05% Tween-20; fitted with the Hill equation.

Experiment [2] has as its target T1, MBP-RtcR (wild-type, full-length RtcR N-terminally tagged with maltose binding protein) (Escherichia coli, UniProt P38035 1-532, labelled with Monolith RED-NHS 2nd Generation dye (amine reactive) in the MST experiments only).
T1 construct: also called RtcRWT; MBP-RtcRWT; not shown: MBP, N-terminal, kept
T1 sequence (looked up): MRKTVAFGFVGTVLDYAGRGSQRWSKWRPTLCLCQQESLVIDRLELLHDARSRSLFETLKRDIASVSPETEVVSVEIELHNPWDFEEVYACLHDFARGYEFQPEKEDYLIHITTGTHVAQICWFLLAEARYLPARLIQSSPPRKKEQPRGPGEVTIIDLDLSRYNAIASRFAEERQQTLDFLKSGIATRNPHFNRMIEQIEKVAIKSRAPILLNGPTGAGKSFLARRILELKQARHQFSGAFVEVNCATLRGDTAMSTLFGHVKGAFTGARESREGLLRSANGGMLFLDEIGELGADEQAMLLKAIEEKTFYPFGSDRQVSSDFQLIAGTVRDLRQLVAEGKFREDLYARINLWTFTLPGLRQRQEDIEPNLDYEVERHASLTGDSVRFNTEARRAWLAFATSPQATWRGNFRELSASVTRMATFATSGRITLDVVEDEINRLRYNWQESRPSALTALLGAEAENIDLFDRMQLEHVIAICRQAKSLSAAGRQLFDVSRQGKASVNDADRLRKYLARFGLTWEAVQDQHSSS
The description is as above. Conditions: both partners purified.

For “His-RtcB (N-terminal his-tagged RNA ligase RtcB) (from UniProt P46850 1-408) (enzyme)”, in experiment [1], the Kd stood at 14.5 µM.

B1: His-RtcA (N-terminal his-tagged RNA 3'-terminal phosphate cyclase RtcA) (enzyme, Escherichia coli, UniProt P46849 1-338, looked up)
chain: MKRMIALDGAQGEGGGQILRSALSLSMITGQPFTITSIRAGRAKPGLLRQHLTAVKAATEICGATVEGAELGSQRLLFRPGTVRGGDYRFAIGSAGSCTLVLQTVLPALWFADGPSRVEVSGGTDNPSAPPADFIRRVLEPLLAKIGIHQQTTLLRHGFYPAGGGVVATEVSPVASFNTLQLGERGNIVQMRGEVLLAGVPRHVAEREIATLAGSFSLHEQNIHNLPRDQGPGNTVSLEVESENITERFFVVGEKRVSAEVVAAQLVKEVKRYLASTAAVGEYLADQLVLPMALAGAGEFTVAHPSCHLLTNIAVVERFLPVRFSLIETDGVTRVSIE
notes: RtcA, RNA 3'-terminal phosphate cyclase, Escherichia coli; not shown: His tag, N-terminal, kept
The molecule B1 had a Kd in experiment [2] of approximately 5 µM.
